What was measured:
human 5T4 antigen [1] = target: T1, human 5T4 antigen (Homo sapiens, UniProt Q13641); assay: BIACORE analysis of antibody binding to human 5T4 antigen immobilized on a CM5 chip; settings: chimeric and humanized antibodies, Table 12
T1 sequence (Q13641 32-420): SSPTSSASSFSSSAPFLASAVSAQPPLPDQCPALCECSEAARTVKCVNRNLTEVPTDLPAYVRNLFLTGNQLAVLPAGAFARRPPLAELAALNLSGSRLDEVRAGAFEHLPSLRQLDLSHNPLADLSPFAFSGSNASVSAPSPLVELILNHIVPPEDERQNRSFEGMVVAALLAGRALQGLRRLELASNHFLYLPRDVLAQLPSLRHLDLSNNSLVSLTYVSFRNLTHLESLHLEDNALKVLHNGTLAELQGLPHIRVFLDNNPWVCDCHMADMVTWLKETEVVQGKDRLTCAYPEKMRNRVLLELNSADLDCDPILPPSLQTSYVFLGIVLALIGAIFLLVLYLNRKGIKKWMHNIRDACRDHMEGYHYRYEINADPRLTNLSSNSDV
Method: To assess the binding specificity and affinity of the A1, A2, and A3 antibodies, BIACORE® analysis was performed using human 5T4 antigen immobilized on a CM5 chip. BIACORE® technology utilizes changes in the refractive index at the surface layer upon binding of the antibody to the 5T4 antigen immobilized on the layer. Binding is detected by surface plasmon resonance (SPR) of laser light refracting from the surface. Analysis of the signal kinetics on rate and off rate allows discrimination between non-specific and specific interactions. The H8 anti-5T4 antibody was used as a control. H8 is a hybridoma-generated monoclonal mouse IgG1 antibody described in PCT International Publication No. WO 98/55607 and in Forsberg et al. (1997) J. Biol. Chem. 272(19):[…].
To assess the binding specificity and affinity of the chimeric and humanized H8, A1, A2, and A3 antibodies, BIACORE® analysis was performed using human 5T4 antigen immobilized on a CM5 chip. See Example 2.

human 5T4 antigen [2] = target: T1, human 5T4 antigen; assay: BIACORE competition assay: second antibody after saturation with first antibody; type: binding
Method: Epitope mapping of the H8, A1, A2, and A3 antibodies was also performed using BIACORE® using a CM5 chip with bound human 5T4 antigen. The chip was saturated with H8, A1, A2, or A3 antibody, and a first response was measured. The chip was then saturated with a second antibody from among the H8, A1, A2, and A3 antibodies, and a second response was measured. For multiple experiments, the chip was regenerated by dissociation of the bound antibodies in 10 mM glycine, pH 1.5, followed by a buffer wash. The percentages shown are the response units measured upon binding by a second antibody directly to the CM5 chip divided by the response units measured upon binding of the second antibody to a CM5 chip saturated with a first antibody.
The epitopes bound by the H8 and A3 antibodies are sterically close to each other such that the rate of association with antigen is decreased when binding of H8 is assayed in the presence of A3, and vice versa. Similar results were obtained using the chimeric and humanized H8, A1, A2, and A3 antibodies, which were prepared as described in Example 7 herein below.

[3] = system: black-tailed marmoset 5T4 ectodomain/Fc fusion protein; assay: Cross-species reactivity ELISA, 5T4 ectodomain/Fc fusion proteins; type: binding; set-up: key: +: binding; −: no binding; +/−: partial binding
Method: (§1) The cross-species reactivity of anti-5T4 antibodies disclosed herein was assayed to determine relevant species for in vivo efficacy studies and toxicology analysis. Correlation of binding activity and relatedness of the different 5T4 ectodomains was also used to further describe the epitope bound by each antibody. Binding assays were performed using 5T4 ectodomains from various species fused to human IgG1 Fc. To assay binding of anti-5T4 antibodies, 5T4 ectodomain/Fc fusion proteins were transiently transfected into COS-1 cells, and ELISA assays were performed. Non-relevant human IgG4 and IgG1 antibodies were used as controls.

[4] = target: T2, mouse 5T4 ectodomain/Fc fusion protein (Mus musculus, UniProt Q9Z0L0); assay: as above; type: binding; set-up: key: +: binding; −: no binding; +/−: partial binding
T2 construct: prepared using mouse 5T4 (amino acids 1-361); human IgG1 Fc; made in house; host or cells: COS-1 cells (transient transfection)
T2 sequence (Q9Z0L0 32-361): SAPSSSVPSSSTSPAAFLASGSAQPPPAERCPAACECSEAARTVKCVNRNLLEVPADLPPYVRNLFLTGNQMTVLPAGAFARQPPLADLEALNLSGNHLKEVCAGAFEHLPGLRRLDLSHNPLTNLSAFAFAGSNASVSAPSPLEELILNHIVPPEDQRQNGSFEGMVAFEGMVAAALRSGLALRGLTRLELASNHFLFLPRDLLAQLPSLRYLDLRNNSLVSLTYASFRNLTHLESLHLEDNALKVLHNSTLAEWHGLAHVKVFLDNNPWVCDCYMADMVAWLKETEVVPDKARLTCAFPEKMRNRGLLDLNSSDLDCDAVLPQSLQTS
Method: as §1

[5] = target: T3, rat 5T4 ectodomain/Fc fusion protein (Rattus norvegicus, UniProt Q5PQV5); assay: as above; type: binding; set-up: key: +: binding; −: no binding; +/−: partial binding
T3 construct: rat 5T4 (amino acids 1-361); human IgG1 Fc; made in house; host or cells: COS-1 cells (transient transfection)
T3 sequence (Q5PQV5 32-361): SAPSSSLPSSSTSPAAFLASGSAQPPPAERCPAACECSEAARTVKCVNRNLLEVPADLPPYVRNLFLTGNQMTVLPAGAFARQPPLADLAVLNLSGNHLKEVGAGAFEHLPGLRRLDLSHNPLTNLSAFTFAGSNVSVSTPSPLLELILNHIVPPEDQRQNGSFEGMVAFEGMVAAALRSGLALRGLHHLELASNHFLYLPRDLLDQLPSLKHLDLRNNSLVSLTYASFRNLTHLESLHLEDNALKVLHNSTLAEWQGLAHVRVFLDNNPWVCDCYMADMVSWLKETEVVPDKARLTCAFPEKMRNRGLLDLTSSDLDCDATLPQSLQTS
Method: as §1

black-tailed marmoset 5T4 ectodomain/Fc fusion protein, sequence (as listed by the source): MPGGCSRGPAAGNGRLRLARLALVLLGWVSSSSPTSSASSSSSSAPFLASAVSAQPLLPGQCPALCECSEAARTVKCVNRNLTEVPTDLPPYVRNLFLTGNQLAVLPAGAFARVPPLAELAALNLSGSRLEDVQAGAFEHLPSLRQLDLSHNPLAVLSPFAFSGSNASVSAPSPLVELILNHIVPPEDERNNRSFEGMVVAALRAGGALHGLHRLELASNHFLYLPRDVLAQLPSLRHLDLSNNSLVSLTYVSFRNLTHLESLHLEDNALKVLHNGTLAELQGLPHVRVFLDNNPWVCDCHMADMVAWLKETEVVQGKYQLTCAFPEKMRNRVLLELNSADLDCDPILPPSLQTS

B1: chimeric A3: chimeric A3 antibody: murine A3 variable regions, human IgG4 heavy chain and human kappa light chain constant regions (antibody, V domains shown)
VH: EVQLVESGGGLVQPKGSLKLSCAASGFTFNTYAMNWVRQAPGKGLEWVARIRSKSNNYATYYADSVKDRFTISRDDSQSMLYLQMNNLKTEDTAMYCCVRQWDYDVRAMNYWGQGTSVTVSS
VL: DIVMTQSHIFMSTSVGDRVSITCKASQDVDTAVAWYQQKPGQSPKLLIYWASTRLTGVPDRFTGSGSGTDFTLTISNVQSEDLADYFCQQYSSYPYTFGGGTKLEIK
KA (1/M) (human 5T4 antigen [1]): ˜5.4 × 10^9 1/M
ka (1/Ms) (human 5T4 antigen [1]): ˜5.4 × 10^4 1/Ms
kd (1/s) (human 5T4 antigen [1]): ˜1.0 × 10^−5 1/s
Percentage of Second Antibody Bound Following Saturation With First Antibody (human 5T4 antigen [2]; first antibody chimeric A1, 19 seconds after injection of second antibody): 82.1%
Percentage of Second Antibody Bound Following Saturation With First Antibody (human 5T4 antigen [2]; first antibody chimeric A1, 37.5 seconds after injection of second antibody): 82.0%
Percentage of Second Antibody Bound Following Saturation With First Antibody (human 5T4 antigen [2]; first antibody chimeric A1, 75 seconds after injection of second antibody): 84.5%
Percentage of Second Antibody Bound Following Saturation With First Antibody (human 5T4 antigen [2]; first antibody chimeric A1, 150 seconds after injection of second antibody): 87.8%
Percentage of Second Antibody Bound Following Saturation With First Antibody (human 5T4 antigen [2]; first antibody chimeric A1, 300 seconds after injection of second antibody): 90.8%
Percentage of Second Antibody Bound Following Saturation With First Antibody (human 5T4 antigen [2]; first antibody chimeric A1, 600 seconds after injection of second antibody): 92.8%
Percentage of Second Antibody Bound Following Saturation With First Antibody (human 5T4 antigen [2]; first antibody chimeric A2, 19 seconds after injection of second antibody): 92.2%
Percentage of Second Antibody Bound Following Saturation With First Antibody (human 5T4 antigen [2]; first antibody chimeric A2, 37.5 seconds after injection of second antibody): 88.6%
Percentage of Second Antibody Bound Following Saturation With First Antibody (human 5T4 antigen [2]; first antibody chimeric A2, 75 seconds after injection of second antibody): 89.5%
Percentage of Second Antibody Bound Following Saturation With First Antibody (human 5T4 antigen [2]; first antibody chimeric A2, 150 seconds after injection of second antibody): 91.5%
Percentage of Second Antibody Bound Following Saturation With First Antibody (human 5T4 antigen [2]; first antibody chimeric A2, 300 seconds after injection of second antibody): 93.4%
Percentage of Second Antibody Bound Following Saturation With First Antibody (human 5T4 antigen [2]; first antibody chimeric A2, 600 seconds after injection of second antibody): 94.6%
cross-reactivity (binding class) [3]: −
cross-reactivity (binding class) [4]: −
cross-reactivity (binding class) [5]: −
